# Measured values published in patent US20220372138A1 (IOMX THERAPEUTICS, published 2022).
# Residue numbers refer to the chain shown, from its start.
# T1: extracellular domain (ECD) of human IGSF11 (VSIG3), recombinant (human, UniProt Q5DX21 23-241)
# T1 construct: biotinylated where captured on streptavidin; tags of the reagent not always stated; also called IGSF11 (ECD domain); ECD-IGSF11
# T1 sequence: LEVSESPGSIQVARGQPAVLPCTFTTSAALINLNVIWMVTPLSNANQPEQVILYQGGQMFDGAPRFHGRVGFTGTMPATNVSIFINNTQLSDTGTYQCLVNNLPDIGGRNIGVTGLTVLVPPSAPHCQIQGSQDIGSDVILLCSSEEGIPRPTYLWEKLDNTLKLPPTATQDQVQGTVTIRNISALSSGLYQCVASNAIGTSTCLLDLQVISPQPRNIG
# T2: ECD of murine IGSF11, recombinant biotinylated (mouse, UniProt P0C673 23-240)
# T2 construct: whole entry named; also called Mouse IGSF11
# T2 sequence: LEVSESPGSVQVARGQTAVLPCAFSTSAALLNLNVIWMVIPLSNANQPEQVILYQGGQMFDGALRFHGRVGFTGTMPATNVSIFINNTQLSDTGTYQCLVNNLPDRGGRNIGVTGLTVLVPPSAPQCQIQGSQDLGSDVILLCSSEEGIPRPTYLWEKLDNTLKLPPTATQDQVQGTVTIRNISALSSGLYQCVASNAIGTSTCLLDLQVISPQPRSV
# T3: ECD of cynomolgus monkey IGSF11, recombinant biotinylated (cynomolgus monkey, UniProt Q5DX21 23-241 (human entry))
# T3 construct: whole entry named
# T3 chain: T1 sequence with P17T, I83V, A185T, S187T
# T4: human IGSF11 (VSIG3) expressed on cells (human, UniProt Q5DX21 23-431)
# T4 sequence: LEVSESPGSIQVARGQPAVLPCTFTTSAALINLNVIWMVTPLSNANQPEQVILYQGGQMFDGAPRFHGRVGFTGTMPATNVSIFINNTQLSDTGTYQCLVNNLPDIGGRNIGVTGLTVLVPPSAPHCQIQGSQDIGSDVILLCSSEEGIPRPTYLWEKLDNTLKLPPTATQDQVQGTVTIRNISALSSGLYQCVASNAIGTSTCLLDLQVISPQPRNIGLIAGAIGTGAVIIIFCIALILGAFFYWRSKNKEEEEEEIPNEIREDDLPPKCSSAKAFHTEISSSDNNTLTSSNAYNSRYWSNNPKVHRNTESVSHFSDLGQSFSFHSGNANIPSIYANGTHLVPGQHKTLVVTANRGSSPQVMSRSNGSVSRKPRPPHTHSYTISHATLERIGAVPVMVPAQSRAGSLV
# T5: human IGSF11 (VSIG3) ECD, His-tagged (human, UniProt Q5DX21 23-241)
# T5 construct: in part bought (SinoBiological 13094-H08H); also called HIS-IGSF11; IGSF11-HIS; not shown: His tag
# T5 sequence: T1 sequence
# B1: A-019 (scFv format) (scFv, V domains shown)
# VH: QVQLVQSGAEVKKPGASVKVSCKASGYTFTGYYMHWVRQAPGQGLEWMGWINPNSGNTGYAQKFQGRVTMTRNTSISTAYMELSSLRSEDTAVYYCARGGQQQLVLDDYWGQGTLVTVSS
# VL: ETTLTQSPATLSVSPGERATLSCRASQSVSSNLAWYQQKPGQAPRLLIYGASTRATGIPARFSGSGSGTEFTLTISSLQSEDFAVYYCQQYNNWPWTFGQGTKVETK
# notes: scFv
# B2: A-016 (scFv format) (scFv, V domains shown)
# VH: QVQLQESGAEVKKPGASVKVSCKASGYTFTGYYMHWVRQAPGQGLEWMGGIIPIFGTANYAQKFQGRVTITADESTSTAYMELSSLRSEDTAVYYCAGAGMELTRSGAYYYYGMDVWGQGTTVTVSS
# VL: QSALTQPASVSGSPGQSITISCTGTSSDIGGYTFVSWYQQHPGKAPKVMIHDVNNRPSGISNRFSGSKSGNTASLTISGLQAEDEADYYCSSVTSTNTYVFGTGTKVTVL
# notes: scFv
# B3: C-006 (Fab format) (Fab, V domains shown)
# VH: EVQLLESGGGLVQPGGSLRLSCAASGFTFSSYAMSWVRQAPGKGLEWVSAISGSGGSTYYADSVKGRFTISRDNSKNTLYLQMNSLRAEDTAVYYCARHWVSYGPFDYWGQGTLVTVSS
# VL: DIQMTQSPSSLSASVGDRVTITCRASQSISSYLNWYQQKPGKAPKLLIYAASSLQSGVPSRFSGSGSGTDFTLTISSLQPEDFATYYCQQSHQSPPITFGQGTKVEIK
# notes: Fab from E. coli lysate
# B4: C-012 (Fab format) (Fab, V domains shown)
# VH: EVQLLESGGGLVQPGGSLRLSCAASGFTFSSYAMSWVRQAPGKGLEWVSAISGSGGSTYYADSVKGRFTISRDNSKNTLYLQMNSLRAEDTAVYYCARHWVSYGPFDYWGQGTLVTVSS
# VL: B3 VL
# notes: Fab from E. coli lysate
# B5: A-011 (scFv format) (scFv, V domains shown)
# VH: QVQLVESGGGVVQPGRSLRLSCAASGFTFSSYAMHWVRQAPGKGLEWVAVISYDGSNKYYADSVKGRFTISRDNSKNTLYLQMNSLRAEDTAVYYCAEGGALNYYGMDVWGQGTTVTVSS
# VL: SSELTQDPGVSVALGQTVRITCQGDSLRHFYATWYQQKPGQAPILVIYGKNNRPSGIPDRFSGSSSEDTASLTITGAQAEDEADYYCQSRDPRNNHLIFGGGTKLIVL
# notes: scFv
# B6: A-001 (scFv format) (scFv, V domains shown)
# VH: EVQLVESGGGLVKPGGSLRLSCAASGFTFSSYSMNWVRQAPGKGLEWVSSISSSSSYIYYADSVKGRFTISRDNAKNSLYLQMNSLRAEDTAVYYCVRSIIVQALGITSVFDIWGQGTMVTVSS
# VL: AIRLTQSPSSLSASVGDRVTISCRASQIISNHLNWYQQKPGKAPKLLIYAASRLQTGVPSRFSGSGSETDYTLTISSLQPEDFATYYCQQSYSNPRTFGHGTKVEIK
# notes: scFv
# B7: A-034 (scFv format) (scFv, V domains shown)
# VH: QMQLVQSGGGLVKPGGSLRLSCAASGFTFSSYTMNWVRQAPGKGLEWVSSISSIGTYIYYADSVKGRFTISRDNAKNSLYLQMNSLRAEDTAVYYCARVLLSGSYYGYFDSWGQGTLVTVSS
# VL: QSVLTQPPSVSGAPGQRVTISCTGSSSNIGAGYDVHWYQQLPGTAPKLFIYGNSNRPSGVPDRFSGSKSGTSASLAITGLQAEDEADYYCQSYDSSLSGYVFGTGTKVTVL
# notes: scFv
# B8: C-010 (Fab format) (Fab, V domains shown)
# VH: QVQLVQSGAEVKKPGSSVKVSCKASGGTFSSYAISWVRQAPGQGLEWMGGIIPIFGTANYAQKFQGRVTITADESTSTAYMELSSLRSEDTAVYYCARGYGEYYPAFDVWGQGTLVTVSS
# VL: SYELTQPPSVSVSPGQTASITCSGDKLGDKYASWYQQKPGQSPVLVIYQDSKRPSGIPERFSGSNSGNTATLTISGTQAEDEADYYCASYAHTHSTWVFGGGTKLTVL
# notes: Fab from E. coli lysate
# B9: A-013 (IgG1 format) (antibody, V domains shown)
# VH: EVQLVESGGGLIQPGGSLRLSCAASGFTVSSNYMSWVRQAPGKGLEWVSVIYSGGSTYYADSVKGRFTISRDNSKNTLYLQMNSLRAEDTAVYYCARGNPYYYGDLQVNFDYWGQGTLVTVSS
# VL: QAVVTQEPSLTVSPGGTVTLTCASSTGAVTSAYYPNWFQQKPGQAPRALIYSTSNKHSWTPARFSGSLLGGKAALTLSGVQPEDEADYYCLLYYGGAWVFGGGTKLTVL
# notes: human IgG1 format
# B10: A-008 (IgG1 format) (antibody, V domains shown)
# VH: QLQLQESGPGLVKPSETLSLTCTVSGGSISSSGYYWGWIRQPPGKGLEWIGSIYYSGSTYYNPSLKSRVTISVDTSKNQFSLKLSSVTAADTAVYYCARHRVRFGEFDAFDIWGQGTMVTVSS
# VL: QAVLTQPPSVSGAPGERVTLSCTGTSSNVGADFDVHWYQQFPGTAPRLLIFGSDNRPSGVPDRFSGSKSGTSASLAITGLQVEDEADYYCQAYDVRLSGWVFGGGTKLTVL
# notes: human IgG1 format
# B11: A-008 (scFv format) (scFv, V domains shown)
# VH: B10 VH
# VL: B10 VL
# notes: scFv
# B12: A-033 (IgG1 format) (antibody, V domains shown)
# VH: QVQLVQSGAEVKKPGASVKVSCKASGYTFTSYGISWVRQAPGQGLEWMGWISAYNGNTNYAQKLQGRVTMTTDTSTSTAYMELRSLRSDDTAVYYCARDHSIVGATTFDYWGQGTLVTVSS
# VL: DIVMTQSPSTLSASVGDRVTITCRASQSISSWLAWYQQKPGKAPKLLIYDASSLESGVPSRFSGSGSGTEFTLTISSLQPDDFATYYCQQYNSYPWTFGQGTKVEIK
# notes: human IgG1 format
# B13: A-026 (scFv format) (scFv, V domains shown)
# VH: QVQLQESGPGLVKPSQTLSLTCTVSGGSISSGGYYWSWIRQHPGKGLEWIGYIYYSGSTYYNPSLKSRVTISVDTSKNQFSLKLSSVTAADTAVYYCASWSLGTSNHGWFDPWGQGTLVTVSS
# VL: QSVLTQPPSASGTPGQRVTISCSGSSSNIGSNTVNWYQQLPGTAPKLLISDNNNRPSGVPDRFSGSKSGTSASLAITGLQAEDEADYYCQSYDSNLSGWVFGGGTKLTVL
# notes: scFv
# B14: A-007 (IgG1 format) (antibody, V domains shown)
# VH: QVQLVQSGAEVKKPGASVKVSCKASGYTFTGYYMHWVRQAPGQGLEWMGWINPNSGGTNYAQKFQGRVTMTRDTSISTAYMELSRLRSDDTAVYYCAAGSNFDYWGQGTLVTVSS
# VL: QSALTQPASVSGSPGQSITIACTGSSSDIGSFSYVSWYQQRPGKAPTLIIYGVNNRPLGVSRRFSGSKSGNTASLSISGLQAEDEADYYCSSYTRRSTVIFGGGTKLTVL
# notes: human IgG1 format
# Key:
# [1] = target: T1, extracellular domain (ECD) of human …; assay: ELISA RFU>1.0
# [2] = target: T2, ECD of murine IGSF11, recombinant …; assay: ELISA RFU 0.5-1.0
# [3] = target: T3, ECD of cynomolgus monkey IGSF11, …; assay: Fab ELISA
# Method: (§1) In order to identify IGSF11-specific binding ABPs, monoclonal Fabs expressed from E. coli were generated from the enriched set of anti-IGFS11 antibody-expressing phage. After bacterial lysis, the Fabs were tested for their binding properties and cross-reactivity profile on recombinant ECD-IGSF11 (human, mouse and cynomolgus monkey) by standard ELISA. Briefly, biotinylated recombinant ECD-IGSF11 from human, mouse, or cynomolgus monkey were immobilized at 2 ug/mL on a streptavidin-coated 384-well Maxisorp plate. The surface was blocked with 2% (w/v) skim milk powder in PBST. After three wash cycles with PBST, a bacterial lysate of each of the anti-IGSF11 Fabs in 2% (w/v) skim milk powder was applied to the immobilized IGSF11 and incubated for 1 h. After removing all unbound Fab by 3 wash cycles with PBST, bound Fab antibodies were detected with a goat anti-human Fab antibody conjugated with horseradish peroxidase. After three wash cycles with PBST the ELISA was developed with TMB substrate.
# [4] = target: T2, ECD of murine IGSF11, recombinant …; assay: ELISA RFU>1.0
# [5] = target: T1, extracellular domain (ECD) of human …; assay: ELISA RFU 0.1-0.5
# [6] = target: T2, ECD of murine IGSF11, recombinant …; assay: Fab ELISA
# Method: as §1
# Streptavidin = Streptavidin (UniProt P22629 37-163, limits assumed); assay: Fab ELISA
# Sequence of Streptavidin (P22629 37-163 limits assumed): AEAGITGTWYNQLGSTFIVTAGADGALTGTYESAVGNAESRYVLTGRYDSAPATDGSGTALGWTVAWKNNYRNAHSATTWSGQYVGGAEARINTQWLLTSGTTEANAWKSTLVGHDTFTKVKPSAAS
# Method: as §1
# [7] = target: T4, human IGSF11 (VSIG3) expressed on cells; assay: IgG1 FACS DMS 273
# [8] = target: T5, human IGSF11 (VSIG3) ECD, His-tagged; assay: IgG1 ELISA EC50 <0.02 nM
# [9] = target: T4, human IGSF11 (VSIG3) expressed on cells; assay: IgG1 FACS HEK-OE
# [10] = target: T1, extracellular domain (ECD) of human …; assay: SPR
# [11] = target: T5, human IGSF11 (VSIG3) ECD, His-tagged; assay: IgG1 ELISA EC50 0.02-0.05 nM
# [12] = target: T4, human IGSF11 (VSIG3) expressed on cells; assay: FACS, M579-A2-luc cells with scrambled control siRNA (SC)
# [13] = target: T4, human IGSF11 (VSIG3) expressed on cells; assay: FACS, M579-A2-luc cells with IGSF11 siRNA (KD, knock-down control)
# [14] = target: T4, human IGSF11 (VSIG3) expressed on cells; assay: FACS, DMS 273 cells with IGSF11 siRNA (KD, knock-down control)
# [15] = target: T4, human IGSF11 (VSIG3) expressed on cells; assay: FACS, DMS 273 cells with scrambled control siRNA (SC)
binder,measurement,setting,value
B1,ELISA binding signal (RFU),[1],> 1 rfu
same,ELISA binding signal (RFU),[2],0.5 to 1 rfu
B2,ELISA binding signal (RFU),[1],> 1 rfu
same,ELISA binding signal (RFU),[2],0.5 to 1 rfu
B3,A450,[3],< 1
B4,A450,[3],< 1
B5,ELISA binding signal (RFU),[4],> 1 rfu
same,ELISA binding signal (RFU),[5],0.1 to 0.5 rfu
B6,ELISA binding signal (RFU),[4],> 1 rfu
same,ELISA binding signal (RFU),[1],> 1 rfu
B7,ELISA binding signal (RFU),[1],> 1 rfu
same,ELISA binding signal (RFU),[2],0.5 to 1 rfu
B8,A450,[6],< 1
same,A450,Streptavidin,< 0.1
same,A450,[3],< 1
B9,EC50,[7],> 50 nM
same,EC50,[8],< 0.02 nM
same,EC50,[9],10 to 50 nM
same,Kd,[10],100 to 250 nM
B10,EC50,[11],0.02 to 0.05 nM
B11,ELISA binding signal (RFU),[4],> 1 rfu
same,ELISA binding signal (RFU),[1],> 1 rfu
B12,EC50,[11],0.02 to 0.05 nM
B13,ELISA binding signal (RFU),[4],> 1 rfu
same,ELISA binding signal (RFU),[1],> 1 rfu
B14,EC50,[7],< 10 nM
same,EC50,[8],< 0.02 nM
same,EC50,[9],< 10 nM
same,% binding (FACS heat-map),[12],65.6%
same,% binding (FACS heat-map),[13],9.15%
same,% binding (FACS heat-map),[14],34.2%
same,% binding (FACS heat-map),[15],82.3%
